Key:
CD40-His = biological target: T1, CD40-His (human, UniProt P25942 21-193); assay: bio-layer interferometry (Octet); ligand column: hCD40-his
T1 construct: Octet (biolayer interferometry) reagent; also called recombinant human CD40; not shown: His tag

[1] = biological target: T2, murine CD40 overexpressed on CHO-K1 cells (CHOK1/CD40) (murine, UniProt P27512 20-289); assay: flow cytometry on CHOK1/CD40 cells; CHOK1/CD40 cells, flow cytometry
T2 construct: whole, on cells; also called mCD40
T2 sequence (looked up): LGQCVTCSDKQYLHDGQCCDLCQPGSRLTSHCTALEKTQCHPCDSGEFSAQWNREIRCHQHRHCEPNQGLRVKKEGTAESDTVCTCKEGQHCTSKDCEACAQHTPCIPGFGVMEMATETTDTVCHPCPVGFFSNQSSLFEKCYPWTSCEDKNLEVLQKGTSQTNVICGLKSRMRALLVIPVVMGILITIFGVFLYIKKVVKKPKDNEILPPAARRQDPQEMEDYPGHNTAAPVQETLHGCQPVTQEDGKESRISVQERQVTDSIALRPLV
Procedure: For cell binding assays, immortalized cell lines were engineered to stably express CD40 (CHOK1/CD40). Increasing concentrations of the murine CSF1R-Fc-CD40L chimeric protein were incubated with the over-expressing (CHOK1/CD40) cell line for 2 hours. Cells were collected, washed, and stained with antibodies for the detection of chimeric protein binding by flow cytometry.
As a negative control, there was no detectable binding to the parental (non-CD40 expressing) CHOK1 cell line.

[2] = biological target: T3, CSF1R-Fc (commercially available, single-sided control protein) (UniProt P07333 20-512, limits assumed); assay: SPR, BioRad ProteOn XPR 360
T3 construct: Recombinant control protein; not shown: Fc part of the bought protein; not described
T3 sequence (P07333 20-512 limits assumed): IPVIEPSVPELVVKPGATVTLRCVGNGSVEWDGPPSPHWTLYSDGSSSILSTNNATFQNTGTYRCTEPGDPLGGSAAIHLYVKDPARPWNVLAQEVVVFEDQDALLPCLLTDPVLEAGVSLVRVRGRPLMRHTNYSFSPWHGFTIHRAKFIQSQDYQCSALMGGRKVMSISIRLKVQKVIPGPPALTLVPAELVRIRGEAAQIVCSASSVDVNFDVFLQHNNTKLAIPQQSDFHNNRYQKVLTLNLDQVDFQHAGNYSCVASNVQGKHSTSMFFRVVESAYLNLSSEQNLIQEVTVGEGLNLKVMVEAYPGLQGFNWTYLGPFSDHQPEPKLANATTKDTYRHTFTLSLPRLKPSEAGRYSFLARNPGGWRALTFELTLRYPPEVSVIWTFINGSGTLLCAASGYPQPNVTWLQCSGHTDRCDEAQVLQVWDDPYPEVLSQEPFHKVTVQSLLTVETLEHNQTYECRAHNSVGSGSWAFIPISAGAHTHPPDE
Procedure: The binding affinity of the different domains of the hCSF1R-Fc-CD40L chimeric protein was measured by the surface plasmon resonance (SPR) using the BioRad ProteOn XPR 360 system. Specifically, the affinity of the chimeric protein for human CSF1 and CD40 was determined and compared to recombinant control proteins, and the results are shown in the Table below: […]

T1 sequence (P25942 21-193 limits assumed): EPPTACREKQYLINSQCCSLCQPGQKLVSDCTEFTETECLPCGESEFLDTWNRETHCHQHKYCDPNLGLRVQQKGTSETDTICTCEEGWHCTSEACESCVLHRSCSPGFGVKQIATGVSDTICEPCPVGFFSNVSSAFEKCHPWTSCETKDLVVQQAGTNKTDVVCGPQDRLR

B1: CD40L-Fc (commercially available, single-sided control protein) (Fc fusion, UniProt P29965 113-261, looked up)
chain: MQKGDQNPQIAAHVISEASSKTTSVLQWAEKGYYTMSNNLVTLENGKQLTVKRQGLYYIYAQVTFCSNREASSQAPFIASLCLKSPGRFERILLRAANTHSSAKPCGQQSIHLGGVFELQPGASVFVNVTDPSQVSHGTGFTSFGLLKL
notes: Recombinant control protein; not shown: Fc part of the bought protein
With B1 the Kd (CD40-His) was 2.42 nM.

B2: murine CSF1R-Fc-CD40L chimeric protein (Fc fusion)
chain (part 1 of 2): APVIEPSGPELVVEPGETVTLRCVSNGSVEWDGPISPYWTLDPESPGSTLTTRNATFKNTGTYRCTELEDPMAGSTTIHLYVKDPAHSWNLLAQEVTVVEGQEAVLPCLITDPALKDSVSLMREGGRQVLRKTVYFFSPWRGFIIRKAKVLDSNTYVCKTMVNGRESTSTGIWLKVNRVHPEPPQIKLEPSKLVRIRGEAAQIVCSATNAEVGFNVILKRGDTKLEIPLNSDFQDNYYKKVRALSLNAVDFQDAGIYSCVASNDVGTRTATMNFQVVESAYLNLTSEQSLLQEVSVGDSLILTVHADAYPSIQHYNWTYLGPFFEDQRKLEFITQRAIYRYTFKLFLNRVKASEAGQYFLMAQNKAGWNNLTFELTLRYPPEVSVTWMPVNGSDVLFCDVSGYPQPSVTWMECRGHTDRCDEAQALQVWNDTHPEVLSQKPFDKVIIQSQLPIGTLKHNMTYFCKTHNSVGNSSQYFRAVSLGQSKQLPDESLFTP
chain (part 2 of 2): HRRLDKVEEEVNLHEDFVFIKKLKRCNKGEGSLSLLNCEEMRRQFEDLVKDITLNKEEKKENSFEMQRGDEDPQIAAHVVSEANSNAASVLQWAKKGYYTMKSNLVMLENGKQLTVKREGLYYVYTQVTFCSNREPSSQRPFIVGLWLKPSSGSERILLKAANTHSSSQLCEQQSVHLGGVFELQAGASVFVNVTEASQVIHRVGFSSFGLLKL
notes: 'constructed as described above in the Detailed Description and in U.S. 62/464,002'; also called mCSF1R-Fc-CD40L; mCD115-Fc-CD40L; not shown: Fc linker
Binder B2 has an EC50 [1] of 91.1 nM.

B3: recombinant human CSF1 protein (ligand, UniProt P09603 33-190, looked up)
chain: EEVSEYCSHMIGSGHLQSLQRLIDSQMETSCQITFEFVDQEQLKDPVCYLKKAFLLVQDIMEDTMRFRDNTPNAIAIVQLQELSLRLKSCFTKDYEEHDKACVRTFYETPLQLLEKVKNVFNETKNLLDKDWNIFSKNCNNSFAECSSQDVVTKPDCN
notes: the construct is not described
With B3 the Kd [2] was 0.275 nM, the koff [2] was 0.000335 s⁻¹ and the kon [2] was 1.22e+06 M⁻¹ s⁻¹.

From patent publication US20190169249A1 (SHATTUCK LABS, published 2019)
